The values that follow come from publication doi:10.1101/2023.04.01.535208.

Assay [1] concerns the target chimeric V2R harboring the carboxy-terminal tail of the β2-adrenergic receptor (V2β2AR).
Assay [2] addresses vasopressin type 2 receptor (V2R) (UniProt P30518).
For assay [3] the target is unchanged. This is another data set of the same source.

arginine vasopressin (AVP) (peptide): in assay [1], the potency of AVP for recruitment of Rluc-mGsq to early endosomes (EbBRET with rGFP-Rab5), cells expressing V2β2AR was -7.82 LogEC50; the potency of AVP for recruitment of Rluc-mGsq to the plasma membrane (EbBRET with rGFP-CAAX), cells expressing V2β2AR was -7.97 LogEC50; the transduction coefficient (operational model) of AVP for recruitment of Rluc-mGs to the plasma membrane, cells expressing V2β2AR stood at 8.04 Logτ/Ka; the transduction coefficient (operational model) of AVP for recruitment of Rluc-mGsq to early endosomes, cells expressing V2β2AR was 7.91 Logτ/Ka.

Regarding mini G protein mGs, in assay [2], the AVP-induced maximal efficacy of the AVP dose-response of Rluc-mGs recruitment to early endosomes (EbBRET with rGFP-Rab5), parental HEK293 cells, 45 minutes was 0.18 ΔEbBRET; the AVP-induced maximal efficacy of the AVP dose-response of Rluc-mGs recruitment to early endosomes (EbBRET with rGFP-Rab5), Δβarr1/2 HEK293 cells, 45 minutes is 0.074 ΔEbBRET; the AVP-induced maximal efficacy of the AVP dose-response of Rluc-mGs recruitment to the plasma membrane (EbBRET with rGFP-CAAX), parental HEK293 cells, 10 minutes is 0.324 ΔEbBRET; the AVP-induced maximal efficacy of the AVP dose-response of Rluc-mGs recruitment to the plasma membrane (EbBRET with rGFP-CAAX), Δβarr1/2 HEK293 cells, 10 minutes was 0.376 ΔEbBRET. For the same substance, in assay [1], the AVP-mediated maximal efficacy of the AVP dose-response of Rluc-mGs recruitment to early endosomes (EbBRET with rGFP-Rab5), cells expressing V2β2AR is 0.15 ΔEbBRET and the AVP-mediated maximal efficacy of the AVP dose-response of Rluc-mGs recruitment to the plasma membrane (EbBRET with rGFP-CAAX), cells expressing V2β2AR is 0.392 ΔEbBRET. Also, in assay [3], the AVP-mediated maximal efficacy of the AVP dose-response of Rluc-mGs recruitment to early endosomes (EbBRET with rGFP-Rab5), cells expressing V2R is 0.167 ΔEbBRET and the AVP-mediated maximal efficacy of the AVP dose-response of Rluc-mGs recruitment to the plasma membrane (EbBRET with rGFP-CAAX), cells expressing V2R was 0.3 ΔEbBRET.

For the substance mini G protein mGsq, in assay [2], the AVP-induced maximal efficacy of the AVP dose-response of Rluc-mGsq recruitment to early endosomes (EbBRET with rGFP-Rab5), parental HEK293 cells, 45 minutes was 0.05 ΔEbBRET; the AVP-induced maximal efficacy of the AVP dose-response of Rluc-mGsq recruitment to early endosomes (EbBRET with rGFP-Rab5), Δβarr1/2 HEK293 cells, 45 minutes was 0.024 ΔEbBRET; the AVP-induced maximal efficacy of the AVP dose-response of Rluc-mGsq recruitment to the plasma membrane (EbBRET with rGFP-CAAX), parental HEK293 cells, 10 minutes was 0.168 ΔEbBRET; the AVP-induced maximal efficacy of the AVP dose-response of Rluc-mGsq recruitment to the plasma membrane (EbBRET with rGFP-CAAX), Δβarr1/2 HEK293 cells, 10 minutes was 0.18 ΔEbBRET. Moreover, in assay [1], the AVP-mediated maximal efficacy of the AVP dose-response of Rluc-mGsq recruitment to early endosomes (EbBRET with rGFP-Rab5), cells expressing V2β2AR was 0.061 ΔEbBRET and the AVP-mediated maximal efficacy of the AVP dose-response of Rluc-mGsq recruitment to the plasma membrane (EbBRET with rGFP-CAAX), cells expressing V2β2AR was 0.183 ΔEbBRET. In assay [3], the AVP-mediated maximal efficacy of the AVP dose-response of Rluc-mGsq recruitment to early endosomes (EbBRET with rGFP-Rab5), cells expressing V2R is 0.05 ΔEbBRET and the AVP-mediated maximal efficacy of the AVP dose-response of Rluc-mGsq recruitment to the plasma membrane (EbBRET with rGFP-CAAX), cells expressing V2R is 0.161 ΔEbBRET.
